In the DeepSol protein solubility set:

Assay: soluble on expression in E. coli; label from the status in PepcDB or PDB records

Row | Sequence | soluble on expression in E. coli
1 | MSLDAIEAEREVLIGFLQEFVRAASPNPPGDTRAAAAVIQGFLSARGVPNELLGPQESMPNVVSECEGGRAGPRLVYNGHMDVFPVGDGHGWTRDPWSGDIEEGRLHGRGTCDMKTGTAASVIAYAYLYARRAQLAGSVALTAVSDEETGGRWGTRWLLENDTRWRGDCVLNGEPSSLDTIRFSEKGTLRLKFEVLAAGAHGAYVHRSESPTRIAAALIGRLAEVEAIEPSLPAALKAHLQREDVRRALDVAMGEGAADVVTRTTLNVGVLNGGLKINMIPDRCVFEVDIRLPVGTEPDVVLARLEGILAEFPQASMEVQQWHSTPPNVCAHDHPMVDFIADNAQAIVGRRPVAVPSIGSTDCRYWRRSGVPAYVYGPAPGRMAMSNESVDLDEFIAVAKVHAAAGWDYLNGAAEGHHHHHH | not soluble
2 | MSLDALTTLPIKKHTALLNRFPETRFVTQLAKKRASWIVFGHYLTPAQFEDMDFFTNRFNAILDMWKVGRYEVALMDGELTSEHETILKALELDYARIQDVPDLTKPGLIVLDMDSTAIQIECIDEIAKLAGVGEEVAEVTERAMQGELDFEQSLRLRVSKLKDAPEQILSQVRETLPLMPELPELVATLHAFGWKVAIASGGFTYFSDYLKEQLSLDYAQSNTLEIVSGKLTGQVLGEVVSAQTKADILLTLAQQYDVEIHNTVAVGDGANDLVMMAAAGLGVAYHAKPKVEAKAQTAVRFAGLGGVVCILSAALVAQQKLSWKSKEGHHHHHH | soluble
3 | MSLDAVDGVRLEEGDAIDWIVFDRPQAANSFSATLLEQFSALVKDRQANGAPVLGIRGSGRGFSSGMDLGEYNATSGPTSDVLRLSSYVERWLDLWRHPKPVIVAVHGYCIGVAAQLASFADILVVAEDAMISEPTIPIGGGFIAPTWVSHVGSRHAKEFAFLPGNRIDGRMAAAWGWANCAVPASEVIACCESLAQRMKLMPPAVLAMKKRSINRAMEAAGFHAAASAIAESDALLHLEPEVTAIRNRLRTEDLKAVVGSYAGESSQEIFQREGHHHHHH | soluble
4 | MSLDEIKIEKLKKLDKKALNELIDVYMSGYEGLEEYGGEGRDYARNYIKWCWKKASDGFFVAKVGDKIVGFIVCDKDWFSKYEGRIVGAIHEFVVDKKFQGKGIGRKLLITCLDFLGKYNDTIELWVGEKNYGAMNLYEKFGFKKVGKSGIWVRMIKRQNLEGHHHHHH | soluble
5 | MSLDEKLRTSGVQVIGDIAWGTHFCQFYRTQEELVNVVCPYLKAGLEGNELCIWALPRDFETKKEAEGPLRRTIPKLDIYLEKGQMEIISYKDRYAEKEIPDSKKALENLIKKADYALLNGYSGLRLVQDTSWLKNDWKNLTGYEEELDIAIENRRITALCTYSSGKFDTDETIYAALSHRFVLVKKEGNWEKVENPRLKKAEERVIQPSEEVETKTEEENENLKKLLEERTVELTEAYKSLKVNEKQFLQIRKMTHIGNWKWDILTGELHWSDEVYRIFGRDPERFKATCDAFLGSVHPDDREYLINSIKKDFDEQIRNIDYRIVLPDGEERTVRTRVEITFDEEGHHHHHH | not soluble
6 | MSLDFAKQGPIVIGGVGGSGTRLIAEIVMDMGFYLGGMLNQSKDLLYFSLLFKRPTWFSKVVTSNEQEIFRGLKILENRLTTQKELTGKDIKFIEKAAQTYRNGDLLAQKIKKNMLFPDPINRQLYRGWGWKEPNAHLFLPYIHRYFPNGKYIHVIRNGLNMAFSKNQQQLFNWGPLFGVTIPNNPMKIPNASLTYWIKANERAVMYGTEQMKGRFLLIQFDQLCVNPTPQLQKLAEFLAVDDLAIDEWSEKIDPAAAASKYKEGHHHHHH | soluble
7 | MSLDGGYRTLAAAELFKRYGHLISPVSGPIAYLHPMPGRNAGMRHMYVAGYLVCPPSAPRENRFDKLCSGKGASDAQARASALAEALERFSGVYQGDEAALRGSLAQLSAHAPPGSGPIDVNALQQYSDRQFERRERHNATTDDPRKQVPRRFTRDSVIDWTPAWSIATGARRLVPLAYCYAETPASSGADYCVHNPNGCAAGACIEEAILQGLLELVERDAVAIWWYNMLRRPAVDIESFGDPYFDALAADYASLGWRLWALDITHDLRIPVFVALARETATGRFSIGFGCHPDSRIALQRALTEVNQLLDVGASAPPPWDVDKLPDDAFLHPDPALPPVRAPARAPHGRCDLKRDIEDCVARLAAAGIDTLVVDKTRPDIGLPVVQVIAPGLCHFWPRFGAPRLYSVPVAQRWRERPRDEDALNRAEGHHHHHH | not soluble
8 | MSLDHRLLSINTATVRRQGDLATIIEACARAQIRAISPWRDQVAHIGLPRAVEAVKATGLALSGYCRGGMFPADPARLPEVRDDNRRAVDEAEALGASCLVLVVGGLPQYARPGSAPSKDIGAARAMVEDGIGTLLEYARSAHMPLAIEPLHPMYAADRACVNTMGQALDICDRLDPERSGMLGVALDVFHVWWDPDLSAQIVRAGRDRLLAYHVCDWLVPMADMLNDRGMMGDGVIDLKAIRAQVEAQGYQGFAEVEIFSEHWWAKPMEEVLGTCISRHRSVVEGHHHHHH | not soluble
9 | MSLDIRLLIMPLPDFALLPFGAFLDKLRFSADDEDYSQQRYCSWMVAGLSLEPVPSSSGAVLQVEAIADQLDLDLFDYLVVFGGRSAMATAALAPRYQALLRQAAKAGVKLVGVDNGAFLLAACGLLQGHKVVVHWRHEAEFRAAFPQLQLLREQLYCIDGNRITCAGGTAAIDLAVALLSRACGRTRALKGLADMLVDETREGHHHHHH | soluble
10 | MSLDKIKAVIFDMDGVLIDAKEWHYEALNKALRLFGFEISRYDHLVTFDGLPTAKKLEMMTVERGLPKSLHQLINDMKQIYTMEYVYMKCKPLFVHQYALSRLKSEGFRLALASNSVRVTIDMMMEKADLNQYLDFSLSNQDVKKSKPDPEIYITAINRLGLSPEECLVVEDNQNGVKAALASGANLLKVETINDVTYSNIINRINEIENNIEGHHHHHH | soluble
11 | MSLDKVYPIGSQYTINGFIIGDDTTENGYPITAKIEVVDTKNTISPKLIAHTIPLNNVKINGNNRLTSNRDLAIKEIISWDVSQQLYNYRDTYGLSTEGYTRSDGWDSPETKLKGHGSGHYMSALALAYAAATNPSHKEILRRNITRMVNELRECQERTFVWSEELGRYLEARDFAPEEELKKMKGTWEAFDEHKTKWATYGYGYLNAIPPHHPALIEMYRAYNNSDWVWAPYYSIHKQLAGLIDIATYMDDKSIADKALLIAKDMGLWVWNRMHYRTYVKKDGTQEERRTHPGNRYEMWNMYIAGEVGGMGESLARLSEMVSAPEEKARLIEASNCFDSPAFYEPLSKNIDDIRNRHANQHIPMIIGALRSYLSNNDTFYYHVSHNFWNLIQGRYRYSTGGVGNGEMFRQPYTQIVSMAMNGVSEGESHSNPHINETCCAYNLLKLTKDLNCFNPDDARYMDYYERTLYNQIIGSLHPEHYQTTYQYAVGLNASKPWGNETPQSTCCGGTGSENHVKYQEATYFVSDNTLWVALYMPTTLHWEEKNITLQQECLWPAKSSTIKVTAGEARFAMKLRVPYWATDGFDVKLNGISIATHYQPCSYAVIPTRQWKENDIVEITMPFTKHIDYGPDKLPAEIASKDGHQLETAWVGTLMHGPFAMTATDITNWTEATLNIDSRLASITVVEPNGPQTGTTGNLYTLMQGGRTFQPDYYRHDHTTHYFRINHIKDPTVELKMALSAKLRETTAFSKSHYTKASFAKLTTAIQEGEKLMKISPLTETTISTCVDNIDKAIESLVASRLDKSNLEASIHIAKKCNPDLYTTDSFKTLQATLESAHEVMDNIDLQTVIDKQTLSLQDATASLVLANNVDKTELKELLNIAMERQTNQEKWNALAVKIPEFAPWAHFGFTRLKRTLEHAQNVYFNKDKNYSQGEVNAIVASLNTVINTMRPGNLPEMEDLRPLSALLRRVGTIDDSTDPTLKDAVAFTEMVIKYVADGSGTHDMIETAISRLKSAAGEGHHHHHH | soluble
12 | MSLDLDRKLIEILDILSKSKEPVGAKIIAKELNKRGYKIGERAVRYHLKLLDGMKLTKKVGYAGRVITERGLEELEKANISYRLGSIYSNILEKTISANYRFGYVVINRCQVYADFNDVLKIIKSVYESGLAVGDRVGIIDREKFVEINTLCSLNFDNILLQNGIFPLHVCAGVVKYEDGKPVEFKEIIDYKSTSIDPLRAFIEKKETDVMGIIENGEGYLPANFRYFGVEFLERFETILEIDELKCIISYGTENVLGLDVGDDKVGVALIGGLTPIAPFVENNYCVEICPMSSIVRLESLHKLKKNPRDIVTKKANIRIKTALSKMFNAMAKVTYDIDEADGDVIVNTAFIDKKYLDEAFDILKEAYKKGLGISDRFGIVEENDRIKIQTICAVTLDGIFLRNSVPLIPKYGGILEITEDKERFIDIIGYDGSSLDPHEVFFNFVDCEKTFLAGFREVHRVAREKLEEVLKKLNWNGIKAIGEPNNELYGIGVNKDMCGVVTMGGINPLVLLKENEIPIELKAMHEVVRFSDLKSYKEIEGHHHHHH | not soluble
13 | MSLDLHYKQFLLLNLYRQDKCLLAEVLLKDSSEFSFGVKFFNYGQLIAYIDSLNSNVYNASITENSFFMTFFRSYIIENTSHKNIRFFLENVECPFYLRHNEVQEFMFAMTLFSCGNFDQSYEIFQLHDYPEAINDKLPTFLEDLKSENYHGDSIWKDLLCTFTVPYRHSAFYYQLSLLFDRNNSQEFALKCISKSAEYSLKEIQIEELQDFKEKQHIHYLNLLIHFRMFEEVLDVLRLGHECLSDTVRTNFLQLLLQEDIYSRDFFSTLLRLCNAHSDNGELYLRTVDIKIVDSILSQNLRSGDWECFKKLYCFRMLNKSERAAAEVLYQYILMQADLDVIRKRKCYLMVINVLSSFDSAYDQWILNGSKVVTLTDLRDELRGEGHHHHHH | not soluble
14 | MSLDLKRLKGSERVRKRVSVMMGSDDIRGCQHTLFEIVSNSIDRHRKGFGNYIKVIKHEDLSYTIIDHADGLPMDWNEKEHAYNWDLALKVLYAGDNYDANSTALGLNGLGLCSSQYASEFMEVISYKEDKKYTVKCKKGRPIDKETGEFICEDDDNLFTKEQGNRVLLVESNTENKTGTYIHYKPDLEVFTNIDISIDWINDKLDKQSMVNKGLKIEIYDEKEDRLYTHFYESGIKDYIKTISNDNNFSDVIYFTDKGKGRDKADKPEYDYNYEIALVFNNEINRLEYYHNSSELLQGGSTSDAISLAFTYAINEYAKNNNVFNKNESKIKFTDIQDSLICVISSFSTMTSYANQTKLSIDNKFIKDFTNQSLKEKLKLYFIENKLEADRIVNQILINKRANDKAEKSKIEIRNKEGHHHHHH | soluble
15 | MSLDNGIELPGVSFWGGNILQDTDGKYHLFVCGWPEDSPKGHMFWSNSTVFHAVSDRLEGPFKIQNSVGKGHNPEAFQLKDGRVVVYVIDGYYIADGVDSKVWTYGKFSFDSRDRKIIEGLSNLTFARRQDDSYLMVCRGGGVWISKDGLSPYMQLTDKRVYPDVEGRFEDPVVWRDELQYHLIVNDWLGRIAFYQRSKDGVHWVTEQGEAYVPGVSFHKDGAVEHWFKYERPKVFQDEKGRAVQMNFAVIDTIKWNDLPNEGHHHHHH | not soluble
16 | MSLDNNIKIIPFGGVRENGKNMYAVEIEDQIFILDTGLKYPENELMGIDVVIPDWEYLREHKDKIVGVFLTHGHADSIGALPYFLMDFNVPVFGSEMTIALAKLAVKNHKEVKKFNDFHVVDASTAIDFNDVTVSFFQTTHTIPETLGVVLETKAGNIVYTGDFKFDQTAKKGYQTDLARLAEIGSQGVLALLSDSAGAGITGASAREQDIGDYIKETFKYQNGRIIVASVASNIMRVQQIINAAVAVGRKIVLSGKDIEQIIDTAMSLGKLHLPDDLFISRKEAEKLEPNQVVILETGKMGEPIKSLQQIANGDNPNLQLTSTDLVFVTTTPSYAQETEVQKTKDMIYRTGAEVKFISDDLNPSGHANQNDEQLMLNFMKPKFFIPIQGEYRLLDRHAELAEEVGIPKENIFLVNKGDVLTYKNGKFHVGEHIDVSNTMIDGTGVGDIGNIVLRDRRVLSEDGIFVVVATIDRKKKKIVARPQITSRGFVFVKTNRQLMQQSADLVEKIVQENLDQKEFDWSHLKQDVRDKLNRFLFDQTKRHPVILPVIMEINQHQKKIKNEGHHHHHH | soluble
